Experimental data reported in PMC8324831, “A synthetic nanobody targeting RBD protects hamsters from SARS-CoV-2 infection” (Nature Communications, 2021).
Where a chain is given by its changes, count along the chain named.

B1: SR1 (VHH)
VHH: QVQLVESGGGLVQAGGSLRLSCAASGFPVAAYEMEWYRQAPGKEREWVAAINSMGDQTYYADSVKGRFTISRDNAKNTVYLQMNSLKPEDTAVYYCYVYVGFSYIGQGTQVTVS
B2: SR2 (VHH)
VHH: B1 VHH with A30K, A31Q, Y32Q, E35T, N52E, M54N, D56H, Q57G, Y59E, F102Q
B3: SR3 (VHH)
VHH: B1 VHH with A30W, A31Q, Y32E, N52T, M54Y, Q57T, Y97V, F102G, S103T
B4: SR5 (VHH)
VHH: B1 VHH with S21R, A30E, A31T, Y32T, N52S, M54Y, D56S, Q57E, F102T, I105L
B5: SR6 (VHH)
VHH: QVQLVESGGGLVQAGGSLRLSCAASGFPVGQQEMTWYRQAPGKEREWVAAILSEGNGTEYADSVKGRFTISRDNAKNTVYLQMNSLKPEDTAVYYCAVYVGATYIGQGTQVTVS
B6: SR7 (VHH)
VHH: QVQLVESGGGLVQAGGSLRLSCAASGFPVWSNEMEWYRQAPGKEREWVAAITSYGTTEYADSVKGRFTISRDNAKNTVYLQMNSLKPEDTAVYYCYVYVGYSYIGQGTQVTVS
B7: SR8 (VHH)
VHH: B1 VHH with A30Y, A31K, Y32R, E35T, N52S, M54K, D56V, Q57H, Y59E, F102K
B8: SR9 (VHH)
VHH: B1 VHH with A30I, N52T, M54S, D56T, Q57S, F102Q, I105L
B9: SR10 (VHH)
VHH: B5 VHH with G30N, Q31K, Q32R, L52T, N56R, G57S, A97Y, Y99F, A102S, T103S
B10: SR11 (VHH)
VHH: B1 VHH with A30Y, A31S, Y32M, N52S, M54W, D56N, Q57E, Y59H, F102A
B11: SR12 (VHH)
VHH: B1 VHH with A30N, A31M, Y32Q, N52S, M54T, D56W, Q57V, F102A
B12: SR13 (VHH)
VHH: B1 VHH with A30D, A31Y, Y32M, Y37F, N52T, M54N, D56R, Q57E, I70V, F102S
B13: SR14 (VHH)
VHH: QVQLVESGGGLVQAGGSLRLSCAASGFPVDSEEMTWYRQAPGKEREWVAAITSDGDITEYADSVKGRFTISRDNAKNTVYLQMNSLKPEDTAVYYCYVWVGRSYLGQGTQVTVS
B14: SR15 (VHH)
VHH: B1 VHH with A30K, A31H, Y32A, N52S, M54N, D56S, Q57E, Y99W, F102Q
B15: SR16 (VHH)
VHH: B1 VHH with A30K, A31K, E35T, N52T, M54K, D56T, Q57Y, F102Y, I105L
B16: SR17 (VHH)
VHH: B1 VHH with A30E, A31G, Y32S, N52E, M54N, D56T, Q57H, Y59H, F102A, S103G
B17: SR18 (VHH)
VHH: B1 VHH with A30W, A31F, Y32Q, N52S, M54Q, D56T, Q57H, F102A, I105L
B18: SR19 (VHH)
VHH: B1 VHH with A30N, A31T, Y32M, M54S, D56Q, Q57E, F102Q
B19: SR20 (VHH)
VHH: B1 VHH with A30T, A31S, N52A, M54W, D56Y, Q57H, F102G
B20: SR21 (VHH)
VHH: B1 VHH with A30S, A31K, Y32T, N52A, M54A, D56A, Q57E, F102Q
B21: SR22 (VHH)
VHH: B1 VHH with A31S, Y32H, N52A, M54S, D56Q, Q57W, F102Q
B22: SR23 (VHH)
VHH: B1 VHH with A30Y, A31T, Y32S, N52A, M54T, D56A, Q57E, Y59A, F102R
B23: SR24 (VHH)
VHH: B5 VHH with G30N, Q31A, Q32M, L52M, N56T, G57W, A97Y, T103S
B24: SR25 (VHH)
VHH: B1 VHH with A30N, A31T, Y32A, E35V, N52Y, M54E, D56P, Q57I, Y59E, F102S
B25: SR26 (VHH)
VHH: B1 VHH with A30N, A31T, Y32R, N52S, M54N, D56H, Q57K, F102R
B26: SR27 (VHH)
VHH: QVQLVESGGGLVQAGGSLRLSCAASGFPVWEAEMEWYRQAPGKEREWVAAISSIGTSTAYADSVKGRFTISRDNAKNTVYLQMNSLKPEDTAVYYCIVYVGKTYIGQGTQVTVS
B27: SR28 (VHH)
VHH: B1 VHH with A30K, A31M, Y32A, N52Q, M54A, D56R, Q57E, F102A, S103G
B28: SR29 (VHH)
VHH: B5 VHH with G30S, Q32R, L52E, N56E, G57Q, A97Y, A102R, T103S
B29: SR30 (VHH)
VHH: B1 VHH with A30R, A31K, Y32H, N52S, M54K, D56S, Q57N, F102A
B30: SR31 (VHH)
VHH: QVQLVESGGGLVQAGGSLRLSCAASGFPVWQGEMAWYRQAPGKEREWVAAISSMGYKTYYADSVKGRFTISRDNAKNTVYLQMNSLKPEDTAVYYCAVMVGFWYAGQGTQVTVS
B31: SR32 (VHH)
VHH: B30 VHH with W30N, Q31V, G32A, E33K, S52D, M54H, Y56A, K57Q, Y59H, M99H
B32: SR33 (VHH)
VHH: B1 VHH with A30G, A31S, Y32N, N52Q, M54S, D56V, Q57F, F102G, I105L
B33: SR34 (VHH)
VHH: QVQLVESGGGLVQAGGSLRLSCAAGGFPVKDHEMEWYRQAPGKEREWVAAITSSGWGTNTYYADSVKGRFTISRDNAKNTVYLQMNSLKPEDTAVYYCYVYVGSSYIGQGTQVTVS
B34: SR35 (VHH)
VHH: QVQLVESGGGLVQAGGSLRLSCAASGFPVKHQTMEWYRQAPGKEREWVAAIMSKGRKTEYADSVKGRFTISRDNAKNTVYLQMNSLKPEDTAVYHCHVYVGATYFGQGTQVTVS
B35: SR36 (VHH)
VHH: B1 VHH with A30Y, A31M, Y32E, N52A, M54Y, D56S, Q57E, F102Q
B36: SR37 (VHH)
VHH: B5 VHH with G30S, Q31T, Q32A, L52E, E54Y, G57S, A97Y, A102Y, T103S
B37: SR38 (VHH)
VHH: B26 VHH with W30N, E31Q, A32E, S52K, I54W, S57L, I97A, Y99H, K102Q
B38: SR39 (VHH)
VHH: B1 VHH with A30D, Y32S, N52E, M54Q, D56Y, Q57E, F102S
B39: SR40 (VHH)
VHH: B1 VHH with A30D, A31S, Y32Q, N52S, M54N, D56K, Q57S, F102L
B40: SR41 (VHH)
VHH: B1 VHH with A30G, A31S, Y32T, N52S, M54T, D56H, Q57Y, Y59H, F102G, I105L
B41: SR42 (VHH)
VHH: B5 VHH with G30Q, Q32R, L52M, E54K, N56V, G57H, A97H, T103S, I105F
B42: SR43 (VHH)
VHH: B1 VHH with A30K, A31K, Y32H, N52Q, M54K, D56Y, Q57T, F102E
B43: SR44 (VHH)
VHH: QVQLVESGGGLVQAGGSLRLSCAASGFPVGTAQMAWYRQAPGKEREWVAAITSYGEYTLYADSVKGRFTISRDNAKNTVYLQMNSLKPEDTAVYYCAVHVGFWYTGQGTQVTVS

The binders below were run against SARS-CoV-2 S-RBD with Avi-tag and deca-His tag (residues 330-531) (SARS-CoV-2, UniProt P0DTC2, biotin on the Avi tag (BirA) where immobilised on streptavidin sensors or used in ELISA and FSEC).

| Binder | binding result |
| --- | --- |
| B1 | binds |
| B2 | binds |
| B3 | binds |
| B4 | binds |
| B5 | binds |
| B6 | binds |
| B7 | binds |
| B8 | binds |
| B9 | binds |
| B10 | binds |
| B11 | binds |
| B12 | binds |
| B13 | binds |
| B14 | binds |
| B15 | binds |
| B16 | binds |
| B17 | binds |
| B18 | binds |
| B19 | binds |
| B20 | binds |
| B21 | binds |
| B22 | binds |

| Binder | binding result |
| --- | --- |
| B23 | binds |
| B24 | binds |
| B25 | binds |
| B26 | binds |
| B27 | binds |
| B28 | binds |
| B29 | binds |
| B30 | binds |
| B31 | binds |
| B32 | binds |
| B33 | binds |
| B34 | binds |
| B35 | binds |
| B36 | binds |
| B37 | binds |
| B38 | binds |
| B39 | binds |
| B40 | binds |
| B41 | binds |
| B42 | binds |
| B43 | binds |
